Results published in patent publication US20150086555A1.

What was measured:
Conditions in all cases: remark: other sources report otherwise
[1] = molecular target: T1, recombinant soluble homotrimeric HA of A/Egypt/3300-NAMRU3/08 (H5N1) (Influenza A virus A/Egypt/3300-NAMRU3/2008(H5N1)); assay: HA microarray, BCC supernatant
[2] = molecular target: recombinant soluble homotrimeric HA, A/Anhui/1/05 H5N1 (Influenza A virus A/Anhui/1/2005(H5N1)); assay: microarray, transfection SN IgG, trimeric HA
[3] = molecular target: recombinant soluble homotrimeric HA, A/California/4/09 H1N1 (Influenza A virus A/California/04/2009(H1N1)); assay: microarray, transfection SN IgG, trimeric HA
[4] = molecular target: recombinant soluble homotrimeric HA, A/Egypt/3300-NAMRU3/08 H5N1 (Influenza A virus A/Egypt/3300-NAMRU3/2008(H5N1)); assay: microarray, transfection SN IgG, trimeric HA
[5] = molecular target: recombinant soluble homotrimeric HA, A/Hong Kong/156/97 H5N1 (Influenza A virus A/Hong Kong/156/97 (H5N1)); assay: microarray, transfection SN IgG, trimeric HA
[6] = molecular target: recombinant soluble homotrimeric HA, A/Indonesia/5/05 H5N1 (Influenza A virus A/Indonesia/5/2005(H5N1)); assay: microarray, transfection SN IgG, trimeric HA
[7] = molecular target: recombinant soluble homotrimeric HA, A/Japan/305/57 H2N2 (Influenza A virus A/Japan/305/1957(H2N2)); assay: microarray, transfection SN IgG, trimeric HA
[8] = molecular target: recombinant soluble homotrimeric HA, A/Solomon Islands/3/06 H1N1 (Influenza A virus A/Solomon Islands/3/2006(H1N1)); assay: microarray, transfection SN IgG, trimeric HA
[9] = molecular target: recombinant soluble homotrimeric HA, A/South Carolina/1/18 H1N1 (Influenza A virus A/South Carolina/1/18 (H1N1)); assay: microarray, transfection SN IgG, trimeric HA
[10] = molecular target: recombinant soluble homotrimeric HA, A/Vietnam/1203/04 H5N1 (Influenza A virus A/VietNam/1203/2004(H5N1)); assay: microarray, transfection SN IgG, trimeric HA
[11] = molecular target: recombinant soluble homotrimeric HA, A/chicken/Vietnam/NCVD-016/08 H5N1 (Influenza A virus A/chicken/Vietnam/NCVD-016/2008(H5N1)); assay: microarray, transfection SN IgG, trimeric HA
[12] = molecular target: recombinant soluble homotrimeric HA, A/northern shoveler/California/HKWF115/07 H6N4 (Influenza A virus A/northern shoveler/California/HKWF115/2007(H6N1)); assay: microarray, transfection SN IgG, trimeric HA
[13] = molecular target: recombinant homotrimeric HA A/swine/Ontario/01911-2/99 H4N6 (Influenza A virus A/Swine/Ontario/01911-2/99 (H4N6)); assay: protein microarray, purified IgG, trimeric HA
[14] = molecular target: recombinant soluble homotrimeric HA of A/Anhui/1/05 (H5N1) (Influenza A virus A/Anhui/1/2005(H5N1)); assay: trimeric HA microarray, transfection supernatant set 2
[15] = molecular target: recombinant soluble homotrimeric HA of A/California/4/09 (H1N1) (Influenza A virus A/California/04/2009(H1N1)); assay: as above
[16] = molecular target: T1, recombinant soluble homotrimeric HA of …; assay: as above
[17] = molecular target: recombinant soluble homotrimeric HA of A/Indonesia/5/05 (H5N1) (Influenza A virus A/Indonesia/5/2005(H5N1)); assay: as above
[18] = molecular target: recombinant soluble homotrimeric HA of A/Japan/305/57 (H2N2) (Influenza A virus A/Japan/305/1957(H2N2)); assay: as above
[19] = molecular target: recombinant soluble homotrimeric HA of A/Netherlands/219/03 (H7N7) (Influenza A virus A/Netherlands/219/03(H7N7)); assay: as above
[20] = molecular target: recombinant soluble homotrimeric HA of A/Solomon Islands/3/06 (H1N1) (Influenza A virus A/Solomon Islands/3/2006(H1N1)); assay: as above
[21] = molecular target: recombinant soluble homotrimeric HA of A/South Carolina/1/18 (H1N1) (Influenza A virus A/South Carolina/1/18 (H1N1)); assay: as above
[22] = molecular target: recombinant soluble homotrimeric HA of A/Vietnam/1203/04 (H5N1) (Influenza A virus A/VietNam/1203/2004(H5N1)); assay: as above
[23] = molecular target: recombinant soluble homotrimeric HA of A/chicken/Vietnam/NCVD-016/08 (H5N1) (Influenza A virus A/chicken/Vietnam/NCVD-016/2008(H5N1)); assay: as above
[24] = molecular target: recombinant soluble homotrimeric HA, A/Wisconsin/67/05 H3N2 (Influenza A virus A/Wisconsin/67/2005(H3N2)); assay: microarray, transfection SN IgG, trimeric HA
[25] = molecular target: recombinant soluble homotrimeric HA, A/duck/Yangzhou/02/05 H8N4 (Influenza A virus A/duck/Yangzhou/02/2005(H8N4)); assay: microarray, transfection SN IgG, trimeric HA

B1: TCN-523 (5248_A17) (antibody, V domains shown)
VH: QVQLVQSGAEVKKPGSSVKVSCKASGGSFSNYAFSWVRQAPGQGLEWMGGTIPLLGTTNYAQKFQGRVTISADQFTSTAYMELGSLRSEDTAVYYCTRRKMTTAFDSWGQGTLVTVSS
VL: QPVLTQPPSASASLGASVTLTCTLSSAYSNYKVDWYQQRPGKGPRFVMRVGTGGIVGSKGDGIPDRFSVLGSGLNRYLTIKNIQEEDESDYHCGADHGSGSNFVSPYVFGGGTKLTVL
B1 was tested, and the Trimeric HA Binding: RLU [1] was 36500 RLU, the Trimeric HA Binding: RLU [2] was 6080 RLU and the Trimeric HA Binding: RLU [3] was 34400 RLU. It also gave a Trimeric HA Binding: RLU [4] of 35500 RLU, a Trimeric HA Binding: RLU [5] of 28400 RLU and a Trimeric HA Binding: RLU [6] of 55000 RLU. The Trimeric HA Binding: RLU [7] was 22000 RLU, the Trimeric HA Binding: RLU [8] was 37600 RLU and the Trimeric HA Binding: RLU [9] was 52000 RLU. It also gave a Trimeric HA Binding: RLU [10] of 27800 RLU, a Trimeric HA Binding: RLU [11] of 51300 RLU and a Trimeric HA Binding: RLU [12] of 46900 RLU. For the same binder, the Trimeric HA Binding: RLU [13] was 85 RLU, the Trimeric HA Binding: RLU [14] was 139 RLU and the Trimeric HA Binding: RLU [15] was 18700 RLU. For the same binder, the Trimeric HA Binding: RLU [16] was 30700 RLU, the Trimeric HA Binding: RLU [17] was 24500 RLU and the Trimeric HA Binding: RLU [18] was 882 RLU. For the same binder, the Trimeric HA Binding: RLU [19] was 407 RLU, the Trimeric HA Binding: RLU [20] was 3270 RLU and the Trimeric HA Binding: RLU [21] was 25500 RLU. The Trimeric HA Binding: RLU [22] was 26200 RLU and the Trimeric HA Binding: RLU [23] was 17600 RLU.

B2: TCN-504 (3251_K17) (antibody, V domains shown)
VH: QVQLQESGPGLVKPSETLSLTCAVSGVSISNIDFYWGWIRQPPGKGLEWIGNIYYTGITFYNPSLSSRVAISIDTSKNQFSLTLTSVTAADTAMYYCARHYGDSEAINDAFDIWGQGTMLTVSS
VL: EIVMTQSPATLSVSPGERATLSCRASQSVGNSLAWYQQRPGQAPRLLIYGASTRATGIPPRFSGSGSGTEFTLTISSLQTEDFAVYYCQQYINWRPLSFGGGTKVEIK
B2 showed a Trimeric HA Binding: RLU [2] of 37200 RLU, a Trimeric HA Binding: RLU [3] of 17600 RLU and a Trimeric HA Binding: RLU [4] of 20600 RLU. It also gave a Trimeric HA Binding: RLU [5] of 26600 RLU, a Trimeric HA Binding: RLU [6] of 18500 RLU and a Trimeric HA Binding: RLU [7] of 23300 RLU. For the same binder, the Trimeric HA Binding: RLU [8] was 30100 RLU, the Trimeric HA Binding: RLU [9] was 32000 RLU and the Trimeric HA Binding: RLU [10] was 21500 RLU. It also gave a Trimeric HA Binding: RLU [24] of 38100 RLU, a Trimeric HA Binding: RLU [11] of 34200 RLU and a Trimeric HA Binding: RLU [25] of 35100 RLU. The Trimeric HA Binding: RLU [14] was 31000 RLU, the Trimeric HA Binding: RLU [15] was 15600 RLU and the Trimeric HA Binding: RLU [16] was 21400 RLU. The Trimeric HA Binding: RLU [17] was 19700 RLU, the Trimeric HA Binding: RLU [18] was 22600 RLU and the Trimeric HA Binding: RLU [19] was 19300 RLU. For the same binder, the Trimeric HA Binding: RLU [20] was 31400 RLU, the Trimeric HA Binding: RLU [21] was 24700 RLU and the Trimeric HA Binding: RLU [22] was 15000 RLU. For the same binder, the Trimeric HA Binding: RLU [23] was 27300 RLU.
